Our source for the normalized interacting score values is publication doi:10.1101/2024.05.21.594841 (bioRxiv, 2024).

Holding throughout (experiment): split reporter
Test [1] deals with T1, Yos9p (S. cerevisiae, UniProt Q99220 22-542).
T1 sequence: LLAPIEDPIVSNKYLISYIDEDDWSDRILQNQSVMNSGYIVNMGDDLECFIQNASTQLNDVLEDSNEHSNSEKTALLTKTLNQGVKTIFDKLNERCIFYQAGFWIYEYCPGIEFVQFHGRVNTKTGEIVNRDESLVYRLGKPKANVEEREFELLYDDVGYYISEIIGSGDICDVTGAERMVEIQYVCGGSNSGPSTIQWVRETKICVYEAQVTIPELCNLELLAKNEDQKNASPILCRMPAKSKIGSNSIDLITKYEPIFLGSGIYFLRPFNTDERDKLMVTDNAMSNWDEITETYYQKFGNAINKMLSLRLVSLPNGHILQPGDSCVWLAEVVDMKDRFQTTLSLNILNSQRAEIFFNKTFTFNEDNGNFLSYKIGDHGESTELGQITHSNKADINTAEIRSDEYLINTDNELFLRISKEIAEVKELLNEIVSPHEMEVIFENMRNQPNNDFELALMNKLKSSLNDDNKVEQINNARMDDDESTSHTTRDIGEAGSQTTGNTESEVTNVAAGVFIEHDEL

Test [2] has as its target T2, Cpr5p (S. cerevisiae, UniProt P35176 23-225).
Test [3] deals with T3, Mpd1p (S. cerevisiae, UniProt Q12404 22-318).
T3 sequence: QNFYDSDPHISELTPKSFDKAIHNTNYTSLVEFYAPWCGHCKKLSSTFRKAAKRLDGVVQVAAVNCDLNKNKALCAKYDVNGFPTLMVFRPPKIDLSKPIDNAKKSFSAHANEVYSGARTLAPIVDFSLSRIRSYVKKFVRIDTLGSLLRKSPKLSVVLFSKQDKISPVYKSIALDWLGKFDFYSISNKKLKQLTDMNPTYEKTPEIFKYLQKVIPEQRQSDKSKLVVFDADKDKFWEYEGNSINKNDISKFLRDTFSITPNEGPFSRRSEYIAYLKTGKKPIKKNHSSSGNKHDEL

The target of test [4] is T1, Yos9p. The source holds these as a separate data set.
Test [5] addresses T2, Cpr5p. The source holds these as a separate data set.
The target in a further test is T4, Pdi1p (S. cerevisiae, UniProt P17967 29-522).
T4 sequence: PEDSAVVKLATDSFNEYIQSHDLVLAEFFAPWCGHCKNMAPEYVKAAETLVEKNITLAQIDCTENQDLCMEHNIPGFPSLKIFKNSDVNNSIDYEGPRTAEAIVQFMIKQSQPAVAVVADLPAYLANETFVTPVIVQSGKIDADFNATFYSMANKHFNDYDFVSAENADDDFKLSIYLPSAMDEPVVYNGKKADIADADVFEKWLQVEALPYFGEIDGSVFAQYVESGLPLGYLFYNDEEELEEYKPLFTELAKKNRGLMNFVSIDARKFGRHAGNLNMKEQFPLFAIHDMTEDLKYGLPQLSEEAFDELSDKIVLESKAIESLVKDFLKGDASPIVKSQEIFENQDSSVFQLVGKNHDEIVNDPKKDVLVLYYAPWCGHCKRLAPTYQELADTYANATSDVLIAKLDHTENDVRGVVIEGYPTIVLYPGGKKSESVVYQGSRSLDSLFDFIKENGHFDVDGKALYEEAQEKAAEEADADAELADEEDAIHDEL

The target of test [6] is T3, Mpd1p. The source holds these as a separate data set.
For the next test, the target named is T5, Sil1p (S. cerevisiae, UniProt Q08199 20-421).
T5 sequence: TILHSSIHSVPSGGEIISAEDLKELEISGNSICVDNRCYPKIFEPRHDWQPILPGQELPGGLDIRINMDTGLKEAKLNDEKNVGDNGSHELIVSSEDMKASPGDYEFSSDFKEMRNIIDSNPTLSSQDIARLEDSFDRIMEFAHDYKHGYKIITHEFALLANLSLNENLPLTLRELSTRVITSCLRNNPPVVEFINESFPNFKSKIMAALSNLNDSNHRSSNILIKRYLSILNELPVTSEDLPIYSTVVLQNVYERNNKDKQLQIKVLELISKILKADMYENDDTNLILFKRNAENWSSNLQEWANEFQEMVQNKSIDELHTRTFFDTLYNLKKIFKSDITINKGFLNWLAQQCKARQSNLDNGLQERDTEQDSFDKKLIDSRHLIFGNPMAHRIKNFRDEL

In the next test the target is T6, Scj1p (S. cerevisiae, UniProt P25303 22-377).
T6 sequence: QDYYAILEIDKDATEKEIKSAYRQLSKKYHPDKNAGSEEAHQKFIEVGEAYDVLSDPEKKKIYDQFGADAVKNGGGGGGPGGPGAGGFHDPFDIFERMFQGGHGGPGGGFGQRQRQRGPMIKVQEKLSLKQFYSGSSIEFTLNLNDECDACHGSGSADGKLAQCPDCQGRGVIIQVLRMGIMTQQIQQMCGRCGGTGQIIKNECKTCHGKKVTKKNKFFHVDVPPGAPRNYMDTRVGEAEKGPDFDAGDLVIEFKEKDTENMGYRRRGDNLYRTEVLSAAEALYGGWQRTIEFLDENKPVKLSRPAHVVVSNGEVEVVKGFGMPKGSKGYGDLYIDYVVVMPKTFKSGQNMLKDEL

Where two headings read alike, the source gives them in different places.

T2 sequence (P35176 23-225): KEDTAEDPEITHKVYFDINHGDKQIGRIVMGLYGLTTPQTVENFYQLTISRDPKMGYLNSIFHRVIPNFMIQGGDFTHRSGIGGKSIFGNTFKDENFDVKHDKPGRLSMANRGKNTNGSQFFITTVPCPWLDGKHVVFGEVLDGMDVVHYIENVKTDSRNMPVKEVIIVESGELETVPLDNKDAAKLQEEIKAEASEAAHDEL

B1: Kre5p (natural protein)
chain: WTYSLRYGIPESAQVWSILVHLLGDVDNQLLTNLYPLVTGLDDEIDIQENLVALTSNVLRERYDKEDVADLLELYASLYPMGMIQHDISSNAEQDDANSSYFVLNGNRYEKPDDVFYLKSKDLTIQQKVPDVDVIQPYDVVIGTNSEAPILILYGCPTVIDSDFEEFNRNLFMEAMNGEGKFRFIWRSTCSLDGKSVEYPLTHPLEITLQNGSRMSSIPQLKKILYTVPKEILVGADNDDQLHDLEPEELRELDLRVTSLISEFYQYKKDITATLNFTKSIVNNFPLISKQLIKVSSVNKDIITSNEELNSKGFDYNMLGLYINGQNWKITSLTPYNLLTALKTEYQSLLKITNLLQELEPSKCILDSKFLLNKFSQFSLGKLQNLQPIKMDLHTIPGFSESVIYFNDIESDPQYDELVNSVQAFFDKSKFGELPEIKQNWSEIIFVIDFARLEDSEVKEALGGLVRAVNVVSQGYPQRVGLLPFSSDSDKSVVNKIYELKNSTDNLTELKSFLETMLLADGLSANAKHSKHIPVPDVFHLLDELQIDETSIIINGEIYPFRKNAWNYLIAKVIKKDTEFIRKELSNSSPKNKQISVRDLLHYKSANLRHNKYTPNYFADSVYSSVNNTALESVCSERIGYYTKNEEYNLLHTITLVDDFGSIHALKRLRNLLHTSFVGVRIRIIHVGDISDIWYQLRGSLSQKDPIGSINTFIDALKLKKVKSHTYKKSGLNQLGLHKWLPDIPLFELQKGSFIALNGRFIHLDQNEVPETEHFEAIIKREALRTIDSVFALDLLFPGFSQEIINPDLIEMISSILTRLFYQGTHIYNNGIDYTTESSLPRMDLSEFFRPNNLTMFEDGKSASIDLLLILDPLEERTQMILSLVEQFRPLKFVNIQVILMPTLELNIVPIRRIYVDDADIVKSITSEDSRSDPEVDIEMDVPNSFIVDNNYRIKKLLIELHSFSSKTVLSTGNIDGMGGVCLALVDSAGNIIDKTTTMKTFGYGQFHTDKFLKGCYIKSCDSRYTVQSFSTDGHPDFIPSDSLDILSYNPQKIAVKISEEPTHEEEYEEGRNNDTIINIFTILESGPDEEERYMQMILSILSKCPETQKVNFFILDQPFISDTLRKSCEYINSSDEMRGNVIFLNYEWPQWLRPQRFSSRRRDVSRFLFLDVLLPQNISKVLYMSPTEVPLDPFDIFQFQGLKRAPLGLFRMSGDGYWKEGYWEKMLRENNLEFYSTEPAFLVNLERFRELDAGDKYRIHYQRISTDAMSLVNIGQDLVNNLQLEVPIRFLKGSYKKKLVINDECVSEWKKKINKFASSPGDEDVPGESVSSKYQDSDNAAPLHDEL
Regarding B1, the normalized interacting score with Yos9p [1] turned out to be 16%; in the test with Cpr5p [2], 22%; with Mpd1p [3], 21%; with Yos9p [4] it was 64%; with Cpr5p [5] it was 59%; with Pdi1p, 23%.

B2: Kar2p (natural protein)
chain: not shown
Regarding B2, the normalized interacting score in the test with Mpd1p [6] was found to be 65%; with Cpr5p [2], 31%; with Sil1p, 35%; with Scj1p, 10%; in the test with Mpd1p [3] it was 86%; with Yos9p [4], 20%. The molecule further yielded a normalized interacting score with Cpr5p [5] of 78%.
